Biological target: T1, C-Met (Homo sapiens, UniProt P08581)
T1 construct: A549 cells, known to readily express the c-Met receptor; endogenous in cells; host or cells: A549 (endogenous); Cos-7 cells overexpressing c-Met
Experiment: FACS analysis of specific binding to c-Met
Conditions: A549 cells and Cos-7 cells that overexpressed c-Met, antibody 1:100, 4° C., 1 hour, FIG. 11
Procedure: Whether the human modified B7 antibody according to the present invention easily binds specifically to c-Met was examined by FACS analysis. Each of A549 cells, known to readily express the c-Met receptor, and Cos-7 cells that overexpressed c-Met, was prepared, washed twice with PBS, detached by treatment with trypsin, washed again with PBS, and then suspended in PBS (PBA buffer) containing 1% BSA protein. Then, the cells were treated with the purified modified B7 antibody of Example 2 at 1:100 at 4° C. for 1 hour, after which the cells were washed with PBA buffer and precipitated by centrifugation at 8000 rpm for 1 minute. The washing and precipitation process was repeated three times. Then, the modified B7 antibody was treated for 20 minutes with a 1:100 dilution of secondary antibody (Invitrogen, Alexa Fluor 488 goat anti-human IgG, #A11013) that detects human antibody. The cells were washed in the same manner as described above and analyzed by FACS analyzer (BD Cantoll Flow Cytometer), and the results of the analysis are shown in FIG. 11.

T1 sequence (P08581 25-1390): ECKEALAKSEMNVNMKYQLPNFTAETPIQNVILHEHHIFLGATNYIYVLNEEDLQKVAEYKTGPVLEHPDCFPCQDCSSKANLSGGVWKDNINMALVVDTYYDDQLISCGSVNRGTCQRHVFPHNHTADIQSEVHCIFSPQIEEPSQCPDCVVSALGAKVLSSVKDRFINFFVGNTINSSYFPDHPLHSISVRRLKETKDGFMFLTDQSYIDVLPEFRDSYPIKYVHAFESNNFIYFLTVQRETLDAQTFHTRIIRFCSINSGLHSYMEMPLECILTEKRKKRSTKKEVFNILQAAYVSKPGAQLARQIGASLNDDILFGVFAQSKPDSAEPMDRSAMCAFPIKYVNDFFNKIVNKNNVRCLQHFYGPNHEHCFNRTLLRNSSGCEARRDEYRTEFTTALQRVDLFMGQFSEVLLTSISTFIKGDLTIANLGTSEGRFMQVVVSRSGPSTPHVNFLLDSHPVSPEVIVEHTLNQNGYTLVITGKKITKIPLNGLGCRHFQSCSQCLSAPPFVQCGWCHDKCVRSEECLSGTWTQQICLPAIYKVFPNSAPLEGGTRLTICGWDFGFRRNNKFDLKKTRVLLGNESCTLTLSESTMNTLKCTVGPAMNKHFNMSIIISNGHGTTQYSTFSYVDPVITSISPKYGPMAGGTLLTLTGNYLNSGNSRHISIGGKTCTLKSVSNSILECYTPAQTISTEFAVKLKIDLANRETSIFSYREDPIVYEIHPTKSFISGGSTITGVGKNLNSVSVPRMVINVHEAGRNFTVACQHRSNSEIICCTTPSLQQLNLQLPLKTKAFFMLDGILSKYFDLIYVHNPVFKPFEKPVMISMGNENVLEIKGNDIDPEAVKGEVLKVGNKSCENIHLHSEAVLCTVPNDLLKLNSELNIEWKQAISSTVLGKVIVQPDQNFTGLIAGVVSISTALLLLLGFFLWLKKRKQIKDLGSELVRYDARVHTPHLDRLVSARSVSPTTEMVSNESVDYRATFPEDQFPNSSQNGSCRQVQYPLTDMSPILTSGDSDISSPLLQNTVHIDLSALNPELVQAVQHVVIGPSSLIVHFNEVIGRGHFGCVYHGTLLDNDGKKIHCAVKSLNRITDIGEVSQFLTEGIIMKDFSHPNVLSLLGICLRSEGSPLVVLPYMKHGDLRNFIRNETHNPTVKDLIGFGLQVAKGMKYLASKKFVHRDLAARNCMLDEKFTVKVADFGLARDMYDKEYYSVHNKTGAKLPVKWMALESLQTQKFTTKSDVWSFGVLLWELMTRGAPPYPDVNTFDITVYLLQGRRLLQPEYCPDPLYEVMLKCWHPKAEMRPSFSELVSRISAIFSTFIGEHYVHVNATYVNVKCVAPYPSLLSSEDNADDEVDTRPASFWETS

B1: modified B7 antibody: B7 antibody with a cysteine residue added to the heavy-chain variable region (SEQ ID NO: 8); light-chain SEQ ID NO: 11 (antibody, V domains shown)
VH: MGWSYIILFLVATAADVHSQVQLQEWGAGLLKPSETLSLTCAVSGGSLSGHYWSWVRLPPGKGLEWIGEISHSGNTNYNSSLKSRASISIDTSKNEYSLNLKSVTAVDTAVYYCARFYGDYPSSYGMDVWGQGTTVTVSSC
VL: MGWSYIILFLVATAADVHSQSALTQPASVSGSPGQSITISCTGTISDIGTYDFVSWYQHKPGKAPKLLIFDVNNRPSGVSSRFSGSKSDNTASLSISGFQAEDEADYYCSSYTDNRGLVLFGGGTKLTVLRS
modifications: a heavy chain variable region with extra cysteine; a light chain variable region
- specific binding to c-Met by FACS: did bind specifically to c-Met

B2: B7 antibody: c-Met-specific human whole IgG from B7 phage variable region; heavy-chain variable region SEQ ID NO: 7, light-chain SEQ ID NO: 11 (antibody, V domains shown)
VH: MGWSYIILFLVATAADVHSQVQLQEWGAGLLKPSETLSLTCAVSGGSLSGHYWSWVRLPPGKGLEWIGEISHSGNTNYNSSLKSRASISIDTSKNEYSLNLKSVTAVDTAVYYCARFYGDYPSSYGMDVWGQGTTVTVSS
VL: B1 VL
modifications: a heavy chain variable region; a light chain variable region
- specific binding to c-Met by FACS: bind specifically to c-Met
- specific binding to c-Met by FACS (listed as original B7 antibody): specifically recognizes c-Met

— patent publication US9364556B2, “Drug conjugate comprising drug linked to human c-Met antibody, and use therefor” (Korea Research Institute of Bioscience and Biotechnology, priority 2011, dated 2016)
